± gives the uncertainty stated by the source.
Assay: amyloid nucleation score (Sup35N fusion, yeast selection) (log enrichment); library NNK1; higher = more nucleation; inactive = no reads after selection
Method in brief: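 In psi-negative yeast, Sup35N fusions carrying peptides of 20 random codons were induced with 100 μM copper sulfate for 24 hours. The cells then grew 7 days at 30°C on medium lacking adenine and uracil, and plasmid inserts from input and output were Illumina-sequenced, excluding sequences with under 100 input reads. Nucleation score is the DiMSum log enrichment of output over input reads, centred on the mode score of non-aggregating sequences.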

Substance | amyloid nucleation score
GRRLIKSTQCGVNKVDSAIW | -0.184 ± 0.27
GRRRSDQASTVRRSLCEGMA | 0.451 ± 0.67
GRSGCCWMS | 2.77 ± 0.19
GRSSD | -0.164 ± 0.84
GRWWRLLLYCLVAVLAFVGF | 1.33 ± 0.6
GSALPSIWSWERFRSLLRNL | -0.221 ± 0.45
GSCCVKCDIHI | 0.167 ± 0.53
GSCFTVWMIGPGRRTLLQVL | -0.079 ± 0.54
GSDMIVYIYRCTVTLMGSST | 3.83 ± 0.099
GSDWTRMMNVLAGGGGVGSE | -0.484 ± 0.58
GSFRMVSMLSGISWARVARF | 3.04 ± 0.18
GSGSAPCCTIAFMMLFGTEG | -0.057 ± 0.81
GSGSDGQVGWFVANRDERRE | 0.495 ± 0.38
GSGVGKLCGLCSPG | 0.274 ± 0.69
GSICSVVVTMLVFSNKVTSL | -0.353 ± 0.6
GSLWFRLGEFARTNFFNSVF | 0.05 ± 0.26
GSMMWSMTADKLKFAGSVVC | 0.889 ± 0.54
GSMWGGFPVG | 1.07 ± 0.85
GSNTFI | 0.243 ± 0.31
GSNVSSTM | 0.537 ± 0.51
GSSAFRINLFFLSIVGYRRS | 5.61 ± 0.062
GSSCNSLPFYVRDRFNTPCV | inactive

Substance | amyloid nucleation score
GSSFGFDYFDAHPMYLVTSY | 1.37 ± 0.48
GSSGAWVCSGCL | -0.626 ± 1.2
GSSTMIGMANSFVVGLDSNE | inactive
GSTRVRTCGRKLMCALS | 0.835 ± 0.24
GSVDQSMC | 0.968 ± 0.45
GSVSVSQQS | -1.4 ± 2.4
GSVVYVIQGDMKRVLGFNGM | 5.42 ± 0.096
GSWFYIFRV | 0.089 ± 0.34
GSWIFCVFHLNMDFCSMGST | -0.023 ± 0.6
GSYECV | 0.734 ± 1.2
GTCYFTDQR | 0.491 ± 0.37
GTFISLLLS | -0.077 ± 0.26
GTGCFRCTVSTVGSVFIRDE | -0.27 ± 0.64
GTGTAPGINPWLLDSFPAPV | 0.378 ± 0.28
GTIENFHGVTN | 0.413 ± 0.49
GTMVSLKTGFKDTSRLLNWS | -0.748 ± 0.41
GTNCHL | -0.036 ± 0.79
GTSESLGYYSVLRMDIYFGS | inactive
GVDKEINLFMYRPYRFVSGE | 1.1 ± 0.24
GVGGLWVEDSWRQRLDSEWA | -0.014 ± 0.48
GVGWVDGWSGSCFHWTGWCT | 3.46 ± 0.078
GVKSQTMLGLQRSAAFILCY | -0.127 ± 0.55

Substance | amyloid nucleation score
GVLNVL | -0.418 ± 0.62
GVLSKSSKLFNCKDYCHSKY | 1.13 ± 0.35
GVLYSDTLT | 1.5 ± 0.14
GVMQFENIYGFVALMRRLMF | 0.668 ± 0.62
GVPVYAVFLVDAMMYVCCMF | 3.51 ± 0.14
GWNRTTSHWIRVFYCAVLVC | -0.346 ± 0.53
GWVGLLH | 0.457 ± 0.31
GYDRSGT | 0.135 ± 1.2
GYGFFWCDCYRYDRGSRWTG | 1.93 ± 0.15
GYGIMANS | -0.179 ± 0.51
GYGYFSIVTTRMIVGVHVKC | -0.509 ± 0.57
GYIGICGNKYYFPVDRYRAC | 1.28 ± 0.57
GYILPLLDVDYVKSVMICFW | 3.8 ± 0.094
GYISRHNAGSSAPVNVVRLR | -0.223 ± 0.65
GYLCLGSCNRSVSLLSSTGS | 0.407 ± 0.47
GYLLAERDLNIATARGSLLR | -0.514 ± 0.65
GYSLYRM | 6.746 ± 0.044
GYTTLTQGL | -0.513 ± 1.2
HAFKPSAAPQWRTYPRFRSG | inactive
HALRSTLYMGSSVFLNAMDS | 0.053 ± 1.1
HARRRCLDGFDMQGGIFM | 0.047 ± 0.47
HAWVVVGRRGGKGLEAWCPV | -0.71 ± 0.81

Substance | amyloid nucleation score
HCCSYLLKR | -0.174 ± 0.61
HCFPCLVVIV | 0.121 ± 0.36
HCFRWSMLGLRYATCPFQSD | -0.108 ± 0.37
HCHSPATKPALTLMMY | -0.738 ± 0.93
HCTLHSSVCSSGCWIE | 1.1 ± 0.97
HCTSQ | 1.71 ± 0.13
HCVEVSYKTSYAKELSFRVC | -0.142 ± 1.1
HEFNR | -0.936 ± 1.6
HEGRS | -1.25 ± 1.2
HFFDITLKADNSIILSLSKS | 6.549 ± 0.057
HFIFEYTSFSS | 0.307 ± 0.29
HFKRWLVNLFLTEFEKSYGV | -1.28 ± 0.62
HFVASDYHNVGSA | inactive
HGAFMVPT | 0.895 ± 0.79
HGTCRC | 0.034 ± 0.68
HGYHVHDGALLNQHNIS | 0.004 ± 0.57
HHFAYWCIVWPE | 0.728 ± 0.54
HHINWPGCVSRNSYKAIYDG | -0.262 ± 0.84
HIGYCQSVSTFSR | 10.2 ± 0.046
HIPNDARRLFGSMGVSRASA | -0.407 ± 1
HISMRDFFSHLGRRVVGIMY | -1.1 ± 0.45

Reference: the supplement of paper PMC12042874
